The assay has as its target YopH PTPase domain (active catalytic domain, residues 164-468), wild type (Yersinia pestis, UniProt O68720 164-468). The assay can be described thus: SPR. On the technique in general: Surface plasmon resonance follows binding to a sensor surface in real time, without labels.

[ ]: non-standard residue; d: D form. The star is where a group is joined. Biotin = O=C1N[C@H]2[C@H](CS[C@H]2CCCCC(=O)*)N1; pY = N[C@@H](Cc1ccc(OP(=O)(O)O)cc1)C(=O)O

B1: biotinylated pTyr-EGFR peptide, biotin-LVDADEpYLIPQQG-COOH (peptide)
peptide: Biotin-LVDADE[pY]LIPQQG-OH
SMILES: CC[C@H](C)[C@H](NC(=O)[C@H](CC(C)C)NC(=O)[C@H](Cc1ccc(OP(=O)(O)O)cc1)NC(=O)[C@H](CCC(=O)O)NC(=O)[C@H](CC(=O)O)NC(=O)[C@H](C)NC(=O)[C@H](CC(=O)O)NC(=O)[C@@H](NC(=O)[C@H](CC(C)C)NC(=O)CCCC[C@@H]1SC[C@@H]2NC(=O)N[C@@H]21)C(C)C)C(=O)N1CCC[C@H]1C(=O)N[C@@H](CCC(N)=O)C(=O)N[C@@H](CCC(N)=O)C(=O)NCC(=O)O
Usually koff stands for a measure of how fast the partners let go of each other. A higher koff goes with fast dissociation. The kon is a measure of how fast the partners come together. A higher kon goes with fast association. As to B1, the koff was 0.0214 s⁻¹ and the kon came to 34.9 M⁻¹ s⁻¹.

The values are drawn from article PMC3573263 (Chemical biology & drug design, 2013).
